What all share (assay): SPR, Protein L capture
(SPR reads the build-up and loss of mass on a sensor chip optically.)

The target in one assay is human FcRn (human) (UniProt P55899).
The target of assay [1] is PRYSPRY domain of human TRIM21 with N-terminal 6xHis tag (human).
Assay [2] concerns the target PRYSPRY domain of mouse TRIM21 with N-terminal 6xHis tag (mouse).

Chain of PRYSPRY domain of human TRIM21 with N-terminal 6xHis tag (human) (chain, as listed by the source limits assumed): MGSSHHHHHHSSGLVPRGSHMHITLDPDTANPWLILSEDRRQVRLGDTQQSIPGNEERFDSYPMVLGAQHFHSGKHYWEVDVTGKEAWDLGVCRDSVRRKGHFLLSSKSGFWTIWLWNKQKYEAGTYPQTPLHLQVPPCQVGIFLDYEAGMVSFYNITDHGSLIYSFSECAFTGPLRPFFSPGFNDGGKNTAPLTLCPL
Chain of UniProt P55899 (P55899 24-290 limits assumed, form in doubt, chain 1 of 2): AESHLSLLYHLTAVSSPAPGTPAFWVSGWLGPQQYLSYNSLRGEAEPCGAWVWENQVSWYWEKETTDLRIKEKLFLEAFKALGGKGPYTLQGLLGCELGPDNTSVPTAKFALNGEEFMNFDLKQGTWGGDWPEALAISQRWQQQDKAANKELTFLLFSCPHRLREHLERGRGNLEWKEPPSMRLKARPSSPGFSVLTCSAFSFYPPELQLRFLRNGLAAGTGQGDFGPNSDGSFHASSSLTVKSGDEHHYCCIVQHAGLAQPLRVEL
Chain of UniProt P55899 (chain, as listed by the source limits assumed, form in doubt, chain 2 of 2): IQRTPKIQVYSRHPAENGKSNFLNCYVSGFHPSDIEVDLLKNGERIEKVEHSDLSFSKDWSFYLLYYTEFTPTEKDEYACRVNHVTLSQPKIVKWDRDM
Chain of PRYSPRY domain of mouse TRIM21 with N-terminal 6xHis tag (mouse) (chain, as listed by the source limits assumed): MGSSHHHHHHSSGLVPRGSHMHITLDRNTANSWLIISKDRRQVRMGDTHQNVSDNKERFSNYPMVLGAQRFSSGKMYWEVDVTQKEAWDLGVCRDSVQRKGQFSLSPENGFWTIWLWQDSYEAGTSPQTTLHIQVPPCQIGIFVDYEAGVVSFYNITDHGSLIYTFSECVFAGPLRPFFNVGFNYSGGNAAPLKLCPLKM

MRAH-G1d/MRAL-KT0 L432A (antibody): the hFcRn binding level ratio (variant/control antibody) with human FcRn (human) came out at 0.08.

In the case of MRAH-G1d/MRAL-KT0 L432R (antibody), the hTRIM21 binding level ratio (variant/control antibody) in assay [1] was 0.099.

As for MRAH-G1d/MRAL-KT0 N434H (antibody), in assay [2], the mTRIM21 binding level ratio (variant/control antibody) was 0.097.

As to MRAH-G1d/MRAL-KT0 L309Q (antibody), the hFcRn binding level ratio (variant/control antibody) with human FcRn (human) was found to be 0.09.

As for MRAH-G1d/MRAL-KT0 E345K (antibody), in assay [1], the hTRIM21 binding level ratio (variant/control antibody) came to 0.096.
